Source: patent US20230038638A1, “COMPLEMENT FACTOR I-RELATED COMPOSITIONS AND METHODS” (published 2023)

What was measured:
human C4b (human) = molecular target: T1, human C4b (human) (UniProt P0C0L5)
T1 sequence: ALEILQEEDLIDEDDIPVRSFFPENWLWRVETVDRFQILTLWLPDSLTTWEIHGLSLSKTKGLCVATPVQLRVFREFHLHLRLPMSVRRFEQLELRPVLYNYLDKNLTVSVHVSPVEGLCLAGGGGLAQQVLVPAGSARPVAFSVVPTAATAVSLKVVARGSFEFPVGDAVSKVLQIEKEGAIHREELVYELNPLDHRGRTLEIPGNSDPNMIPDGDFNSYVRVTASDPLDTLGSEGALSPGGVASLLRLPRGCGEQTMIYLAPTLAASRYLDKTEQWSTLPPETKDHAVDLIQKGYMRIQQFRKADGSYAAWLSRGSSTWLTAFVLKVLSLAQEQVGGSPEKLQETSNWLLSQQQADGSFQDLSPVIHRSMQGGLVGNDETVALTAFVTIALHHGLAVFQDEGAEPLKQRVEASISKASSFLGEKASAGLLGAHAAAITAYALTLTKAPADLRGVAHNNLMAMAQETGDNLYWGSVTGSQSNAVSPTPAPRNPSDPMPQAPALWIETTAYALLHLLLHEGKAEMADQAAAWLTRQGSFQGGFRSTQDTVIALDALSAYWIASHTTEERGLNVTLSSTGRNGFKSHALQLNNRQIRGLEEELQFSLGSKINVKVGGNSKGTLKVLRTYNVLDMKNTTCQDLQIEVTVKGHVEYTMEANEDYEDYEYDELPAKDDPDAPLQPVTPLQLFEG

[1] = molecular target: soluble human C3b (human) (UniProt P01024)

Row | Substance | C4b Screen Ref Fold (fold vs CFI-HSA wild type) (human C4b (human)) | iC3b Screen Ref Fold (fold vs CFI-HSA wild type) [1] | C4b Screen Ref Fold (fold of CFI-HSA wild type) (human C4b (human)) | iC3b Screen Ref Fold (fold of CFI-HSA wild type) [1]
1 | CFI-HSA variant Y408L; N531G; P535G; WT; GGSSGG (SEQ ID NO: 6); CR1(ccp15-17) (from UniProt P17927) (enzyme) |  |  | 3.6 | 0.05
2 | CFI-HSA variant S552G; F559L (enzyme) |  |  | 1.41 | 0.79
3 | CFI-HSA variant S552G; V565I (enzyme) |  |  | 1.23 | 1.58
4 | CFI-HSA E457G; N531G; E461Q; R462K; F464Y; GGSSGG (SEQ ID NO: 6); CR1 (ccp1-3) (from UniProt P17927) (enzyme) | 0.46 | 0.14 |  | 
5 | CFI-HSA variant E457G; N531G; P535G; P558S (enzyme) |  |  | 1.56 | 0.87
6 | CFI-HSA variant Y408G (enzyme) | 0.05 | 0.27 |  | 
7 | CFI-HSA D549P (enzyme) | 1.08 | 0.53 |  | 
8 | CFI-HSA variant Y408L; N531G; E416A (enzyme) |  |  | 2.54 | 2.07
9 | CFI-HSA K424I (enzyme) | 0.28 | 1.48 |  | 
10 | CFI-HSA variant Y408L; N422K (enzyme) |  |  | 0.6 | 1.27
11 | CFI-HSA variant N52Q; N85Q; N159Q (enzyme) | 0.24 | 1.93 |  | 
12 | CFI-HSA Y408L; E530Y (enzyme) | 0.33 | 1.93 |  | 
13 | CFI-HSA T377G; E457G; E461Q (enzyme) | 3.75 | 2.27 |  | 
14 | CFI-HSA variant S552G; V565I; P558S (enzyme) |  |  | 0.89 | 1.32
15 | CFI-HSA variant N531G; WT; GGSSGG (SEQ ID NO: 6); CR1(ccp15-17) (from UniProt P17927) (enzyme) |  |  | 5.3 | 0.05
16 | CFI-HSA Y553A (enzyme) | 0.52 | 1.1 |  | 
17 | CFI-HSA K423G (enzyme) | 0.15 | 0.69 |  | 

Row | Substance | C4b Screen Ref Fold (fold vs CFI-HSA wild type) (human C4b (human)) | iC3b Screen Ref Fold (fold vs CFI-HSA wild type) [1] | C4b Screen Ref Fold (fold of CFI-HSA wild type) (human C4b (human)) | iC3b Screen Ref Fold (fold of CFI-HSA wild type) [1]
18 | CFI-HSA T377G; E457G; E461Q; N531G (enzyme) | 4.73 | 1.57 |  | 
19 | CFI-HSA K424T (enzyme) | 0.03 | 0.13 |  | 
20 | CFI-HSA variant K504G (enzyme) | 0.15 | 0.17 |  | 
21 | CFI-HSA variant Y408A (enzyme) | 0.09 | 0.71 |  | 
22 | CFI-HSA variant I322V (enzyme) | 0.38 | 0.39 |  | 
23 | CFI-HSA E457G; E530Y (enzyme) | 2.48 | 2.03 |  | 
24 | CFI-HSA R371G (enzyme) | 0.15 | 0.17 |  | 
25 | CFI-HSA Y408L; E457G; N531G; E530Y (enzyme) | 4.16 | 2.07 |  | 
26 | CFI-HSA variant Y408L; E457G; P535G; N422K (enzyme) |  |  | 1.07 | 1.39
27 | CFI-HSA variant E457G; N531G; P535G; WT; GGSSGG (SEQ ID NO: 6); CR1(ccp15-17) (from UniProt P17927) (enzyme) |  |  | 5.82 | 0.03
28 | CFI-HSA V540G (enzyme) | 0.01 | 0.03 |  | 
29 | CFI-HSA variant N402E (enzyme) | 1.64 | 0.75 |  | 
30 | CFI-HSA R365M (enzyme) | 0.13 | 0.43 |  | 
31 | CFI-HSA R365V (enzyme) | 1.25 | 0.43 |  | 
32 | CFI-HSA L76G (enzyme) | 0.07 | 0.5 |  | 
33 | CFI-HSA R365G (enzyme) | 0.35 | 0.16 |  | 

The remaining lines, values ahead:

Row | C4b Screen Ref Fold (fold vs CFI-HSA wild type) (human C4b (human)) | iC3b Screen Ref Fold (fold vs CFI-HSA wild type) [1] | C4b Screen Ref Fold (fold of CFI-HSA wild type) (human C4b (human)) | iC3b Screen Ref Fold (fold of CFI-HSA wild type) [1] | Substance
34 | 0.31 | 0.43 |  |  | CFI-HSA R365H (enzyme)
35 | 1.63 | 0.6 |  |  | fH_CCP1-4; GGSS(13); wt hCFI (enzyme)
36 |  |  | 0.6 | 0.5 | CFI-HSA variant Y553F; P558S; F559L (enzyme)
37 | 0.96 | 0.24 |  |  | CFI-HSA N531G; P535A; ΔC-term (Δ558-PFISQYNV (SEQ ID NO: 14)-565) (enzyme)
38 | 0.42 | 0.95 |  |  | CFI-HSA K424Y (enzyme)
39 | 0.82 | 2.1 |  |  | CFI-HSA E401G (enzyme)
40 | 0.15 | 0.01 |  |  | CFI-HSA variant A328C; W468C; K326Y; R327N (enzyme)
41 | 0.6 | 0.16 |  |  | CFI-HSA R365L (enzyme)
42 | 4.22 | 1.67 |  |  | CFI-HSA E457G; N531G; E530Y (enzyme)
43 |  |  | 0.33 | 0.26 | CFI-HSA variant Y408L; P535G; K534Q (enzyme)
44 | 0.09 | 0.16 |  |  | CFI-HSA S527G (enzyme)
45 | 0.01 | 0.05 |  |  | CFI-HSA variant V323A (enzyme)
46 | 0.78 | 1.38 |  |  | CFI-HSA Y553R (enzyme)
47 | 0.92 | 1.32 |  |  | CFI-HSA S343G (enzyme)
48 | 0.24 | 0.25 |  |  | CFI-HSA variant E530D (enzyme)
49 | 3.23 | 0.21 |  |  | CFI-HSA R557Y (enzyme)
50 | 0.42 | 1.01 |  |  | CFI-HSA variant Y20F; D425R (enzyme)
